The series is described as follows: self-splicing fitness, log relative to wild type (ln ratio); higher = more splicing; Tetrahymena group I intron in knt gene, E. coli kanamycin selection, DiMSum; sequences stand for … in CUCUCU…GGAGGGAAAAGUUAUCAGGCAUGCACCUGGUAGCUAGUCUUUAAACCAAUAGAUUGCAUCGGUUUAAAAGGCAAGACCGUCAAAUUGCGGGAAAGGGGUCAACAGCCGUUCAGUACCAAGUCUCAGGGGAAACUUUGAGAUGGCCUUGCAAAGGGUAUGGUAAUAAGCUGACGGACAUGGUCCUAACCACGCAGCCAAGUCCUAAGUCAACAGAUCUUCUGUUGAUAUGGAUGCAGUUCACAGACUAAAUGUCGGUCGGGGAAGAUGUAUUCUUCUCAUAAGAUAUAGUCGGACCUCUCCUUAAUGGGAGCUAGCGGAUGAAGUGAUGCAACACUGGAGCCGCUGGGAACUAAUUUGUAUGCGAAAGUAUAUUGAUUAGUUUUGGAGUACUCGUGGUCG
Put shortly: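 Pooled colonies went to amplicon sequencing on an Illumina HiSeq 2500 after six replicate transformations. The plates were LB agar with 100 μg/mL carbenicillin, 50 μM IPTG and 0.2% rhamnose, with or without 25 μg/mL kanamycin, incubated overnight at 37°C or 30°C. The E. coli BL21(DE3) library had all eight P1ex-region intron nucleotides randomised, the intron placed in the knt kanamycin-resistance gene on pET-22b(+). DiMSum fitness is the error-weighted combination of replicate fold changes, kanamycin against none, normalised to wild type.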

From the supplement of paper PMC7877785 come the findings set out here.

± gives the uncertainty stated by the source.

In the case of UAUCAGCAAUAUUACGGAAG, the “self-splicing fitness (ln)” value is, setting by setting: (30 °C) -0.901 ± 0.1; (37 °C) -0.651 ± 0.12.

For the sequence CCACAGCAAUAUUACGUCAG, the “self-splicing fitness (ln)” value (30 °C) is -0.817 ± 0.057 and the “self-splicing fitness (ln)” value (37 °C) was -0.131 ± 0.071.

Consider AAAAAGCAAUAUUACGAAUU, for which the “self-splicing fitness (ln)” value by setting is: (30 °C) -1.3 ± 0.072; (37 °C) -1.13 ± 0.089.

As for CCAAAGCAAUAUUACGCGGG, the “self-splicing fitness (ln)” value (30 °C) is -4.4 ± 0.42 and the “self-splicing fitness (ln)” value (37 °C) is -1.38 ± 0.16.

For GCCAAGCAAUAUUACGAUGC, the “self-splicing fitness (ln)” value by setting is: (30 °C) -1.7 ± 0.09; (37 °C) -0.188 ± 0.11.

For AUUCAGCAAUAUUACGACAA, the “self-splicing fitness (ln)” value is, setting by setting: (30 °C) -0.461 ± 0.15; (37 °C) -0.889 ± 0.19.

Regarding AGGGAGCAAUAUUACGUCAC, the “self-splicing fitness (ln)” value (30 °C) was -2.07 ± 0.24 and the “self-splicing fitness (ln)” value (37 °C) is -2.69 ± 0.26.

UUUCAGCAAUAUUACGCUCU: the “self-splicing fitness (ln)” value (30 °C) was -1.2 ± 0.093 and the “self-splicing fitness (ln)” value (37 °C) was -0.182 ± 0.11.

UUUAAGCAAUAUUACGCGGU: the “self-splicing fitness (ln)” value reads like this: (30 °C) -3.46 ± 0.26; (37 °C) -1.85 ± 0.23.

In the case of GCCGAGCAAUAUUACGACCU, the “self-splicing fitness (ln)” value is -2.33 ± 0.3 (30 °C) and -1.54 ± 0.36 (37 °C).

UUGCAGCAAUAUUACGAUAA: the “self-splicing fitness (ln)” value is -0.501 ± 0.11 (30 °C) and 0.0102 ± 0.12 (37 °C).

For the sequence CUCGAGCAAUAUUACGCAAU, under “30 °C”, the “self-splicing fitness (ln)” value was -3.57 ± 0.2.

UGUGAGCAAUAUUACGUAGG: the “self-splicing fitness (ln)” value by setting is: (30 °C) -3.5 ± 0.16; (37 °C) -1.5 ± 0.14.

For the sequence AAUAAGCAAUAUUACGACGG, the “self-splicing fitness (ln)” value was -2.35 ± 0.15 (30 °C) and -1.34 ± 0.19 (37 °C).

For GUUUAGCAAUAUUACGUUAC, the “self-splicing fitness (ln)” value runs as follows: (30 °C) -4.44 ± 0.28; (37 °C) -2.33 ± 0.18.

On to GGUUAGCAAUAUUACGCAUU, for which the “self-splicing fitness (ln)” value was -0.941 ± 0.075 (30 °C) and -0.185 ± 0.086 (37 °C).

In the case of AGAAAGCAAUAUUACGAACA, the “self-splicing fitness (ln)” value is -0.534 ± 0.16 (30 °C) and -0.288 ± 0.16 (37 °C).

Regarding ACUUAGCAAUAUUACGUAUG, the “self-splicing fitness (ln)” value is, setting by setting: (30 °C) -3.35 ± 0.22; (37 °C) -2.2 ± 0.16.

For the sequence CUGAAGCAAUAUUACGUCUA, the “self-splicing fitness (ln)” value by setting is: (30 °C) -0.846 ± 0.077; (37 °C) -0.487 ± 0.1.

Turning to GCUCAGCAAUAUUACGCGAG, the “self-splicing fitness (ln)” value by setting is: (30 °C) -2.78 ± 0.13; (37 °C) -2.18 ± 0.17.

For UUUCAGCAAUAUUACGGUAA, the “self-splicing fitness (ln)” value is, setting by setting: (30 °C) -0.255 ± 0.1; (37 °C) -0.168 ± 0.084.

As for CUAAAGCAAUAUUACGCGGU, the “self-splicing fitness (ln)” value is -1.44 ± 0.097 (30 °C) and -1.2 ± 0.094 (37 °C).

For the sequence AGACAGCAAUAUUACGCAUU, the “self-splicing fitness (ln)” value is, setting by setting: (30 °C) -3.41 ± 0.12; (37 °C) -1.45 ± 0.087.

UUCUAGCAAUAUUACGUAUG: the “self-splicing fitness (ln)” value runs as follows: (30 °C) -3 ± 0.17; (37 °C) -1.8 ± 0.17.

Regarding UUUAAGCAAUAUUACGAAGC, the “self-splicing fitness (ln)” value runs as follows: (30 °C) -1.88 ± 0.32; (37 °C) -0.328 ± 0.42.

In the case of UUAAAGCAAUAUUACGUAAU, the “self-splicing fitness (ln)” value reads like this: (30 °C) -2.43 ± 0.12; (37 °C) -1.91 ± 0.14.

As to UCAAAGCAAUAUUACGAUGC, the “self-splicing fitness (ln)” value (30 °C) is -2.78 ± 0.15 and the “self-splicing fitness (ln)” value (37 °C) is -0.924 ± 0.15.

Turning to ACCAAGCAAUAUUACGAAAC, the “self-splicing fitness (ln)” value was -4.33 ± 0.34 (30 °C) and -1.71 ± 0.25 (37 °C).

As for GAGUAGCAAUAUUACGGCCC, the “self-splicing fitness (ln)” value is, setting by setting: (30 °C) -0.847 ± 0.18; (37 °C) 0.0966 ± 0.35.

Consider UACGAGCAAUAUUACGCUAA, for which the “self-splicing fitness (ln)” value is -2.89 ± 0.42 (30 °C) and -2.85 ± 0.35 (37 °C).

Turning to CGGAAGCAAUAUUACGCGAU, the “self-splicing fitness (ln)” value is -3.28 ± 0.28 (30 °C) and -2.05 ± 0.33 (37 °C).

GAAGAGCAAUAUUACGGAAA: the “self-splicing fitness (ln)” value runs as follows: (30 °C) -2.81 ± 0.14; (37 °C) -2.93 ± 0.22.

As to ACGUAGCAAUAUUACGAAGA, the “self-splicing fitness (ln)” value is -2.85 ± 0.41 (30 °C) and -0.644 ± 0.16 (37 °C).

As to CUGAAGCAAUAUUACGAUCG, the “self-splicing fitness (ln)” value reads like this: (30 °C) 0.00255 ± 0.12; (37 °C) -0.0487 ± 0.13.

AGGAAGCAAUAUUACGAUAU: the “self-splicing fitness (ln)” value is -3.48 ± 0.19 (30 °C) and -2.5 ± 0.12 (37 °C).

As for CACCAGCAAUAUUACGGUCG, the “self-splicing fitness (ln)” value (30 °C) was -1.28 ± 0.062 and the “self-splicing fitness (ln)” value (37 °C) is -0.351 ± 0.069.

With UGUGAGCAAUAUUACGUGCG, the “self-splicing fitness (ln)” value was -1.36 ± 0.11 (30 °C) and -1.06 ± 0.14 (37 °C).

For CUCAAGCAAUAUUACGAUAA, the “self-splicing fitness (ln)” value is, setting by setting: (30 °C) -3.78 ± 0.16; (37 °C) -1.93 ± 0.12.

Regarding AAUUAGCAAUAUUACGAGCA, the “self-splicing fitness (ln)” value runs as follows: (30 °C) -1.1 ± 0.12; (37 °C) -0.758 ± 0.1.

Take GUCCAGCAAUAUUACGAUUG: the “self-splicing fitness (ln)” value is, setting by setting: (30 °C) -3.41 ± 0.17; (37 °C) -3.17 ± 0.24.

For GCCCAGCAAUAUUACGAAAA, the “self-splicing fitness (ln)” value runs as follows: (30 °C) -1.7 ± 0.1; (37 °C) -1.87 ± 0.12.

As for GAUUAGCAAUAUUACGGCCG, the “self-splicing fitness (ln)” value (30 °C) is -1.01 ± 0.13 and the “self-splicing fitness (ln)” value (37 °C) is -1.01 ± 0.19.

For AAGUAGCAAUAUUACGCCAG, the “self-splicing fitness (ln)” value is -2.64 ± 0.21 (30 °C) and -0.996 ± 0.24 (37 °C).

CUCGAGCAAUAUUACGAGGG: the “self-splicing fitness (ln)” value was -3.45 ± 0.28 (30 °C) and -1.83 ± 0.35 (37 °C).

Consider AUGUAGCAAUAUUACGUUUA, for which the “self-splicing fitness (ln)” value is -2.38 ± 0.13 (30 °C) and -1.86 ± 0.12 (37 °C).

In the case of UCACAGCAAUAUUACGGUAC, the “self-splicing fitness (ln)” value is -3.57 ± 0.24 (30 °C) and -2.6 ± 0.22 (37 °C).

On to CACGAGCAAUAUUACGUAAC, for which the “self-splicing fitness (ln)” value (30 °C) was -2.41 ± 0.27.

As for AGUAAGCAAUAUUACGGACU, the “self-splicing fitness (ln)” value (30 °C) was -1.57 ± 0.15 and the “self-splicing fitness (ln)” value (37 °C) was 0.25 ± 0.17.

Consider UCCCAGCAAUAUUACGUCUU, for which the “self-splicing fitness (ln)” value is -2.99 ± 0.14 (30 °C) and -2.76 ± 0.2 (37 °C).

Turning to GUUCAGCAAUAUUACGAUGG, the “self-splicing fitness (ln)” value reads like this: (30 °C) -3.81 ± 0.29; (37 °C) -2.31 ± 0.25.

Turning to UCAAAGCAAUAUUACGACUA, the “self-splicing fitness (ln)” value is, setting by setting: (30 °C) -1.14 ± 0.098; (37 °C) -1.03 ± 0.1.

With GCCUAGCAAUAUUACGACAU, the “self-splicing fitness (ln)” value was -2.109 ± 0.015 (30 °C) and -1.02 ± 0.033 (37 °C).

Consider GAGGAGCAAUAUUACGAAUU, for which the “self-splicing fitness (ln)” value (30 °C) is -3.43 ± 0.3.

For the sequence GGAGAGCAAUAUUACGUCGC, the “self-splicing fitness (ln)” value runs as follows: (30 °C) -1.99 ± 0.39; (37 °C) 0.588 ± 0.38.

For GCAUAGCAAUAUUACGAUAA, the “self-splicing fitness (ln)” value by setting is: (30 °C) -2.1 ± 0.15; (37 °C) -1.27 ± 0.13.

As to AACGAGCAAUAUUACGCAGU, the “self-splicing fitness (ln)” value is -2.87 ± 0.23 (30 °C) and -2.52 ± 0.29 (37 °C).

UAAUAGCAAUAUUACGUGCU: the “self-splicing fitness (ln)” value is, setting by setting: (30 °C) -1.98 ± 0.1; (37 °C) -0.994 ± 0.1.

For the sequence CGUGAGCAAUAUUACGAAUU, under “37 °C”, the “self-splicing fitness (ln)” value is -0.866 ± 0.17.

Take UGCUAGCAAUAUUACGCUAC: the “self-splicing fitness (ln)” value runs as follows: (30 °C) -2.72 ± 0.48; (37 °C) -2.32 ± 0.47.

Consider AGCUAGCAAUAUUACGUCGG, for which the “self-splicing fitness (ln)” value is -2.97 ± 0.3 (30 °C) and -1.32 ± 0.26 (37 °C).

Take GCUAAGCAAUAUUACGGUAC: the “self-splicing fitness (ln)” value (30 °C) is -1.47 ± 0.1 and the “self-splicing fitness (ln)” value (37 °C) is -1.65 ± 0.2.
